{"source": "patent US20130196406A1", "about": "“NOVEL PROTEIN-POLYMER NANOCAPSULES” (University of Connecticut, priority 2012, published 2013)", "test_system": "T1, COc1ccccc1O", "T1 construct": "peroxidase-like activity with guaiacol/H2O2", "assay": "Peroxidase-like activity, Michaelis-Menten kinetics (guaiacol oxidation by H2O2, 470 nm), unmodified Hb", "type": "biochemical, bovine", "settings": "other: Hb, 1 μM Hb, 2.5 mM guaiacol", "protocol": "FIG. 5 provides Lineweaver-Burk plots for the peroxidase-like activity of Hb-PAA conjugates. A) Peroxidase-like activity for the 1 μM of Hb-PAA synthesized at pH 6.0. B) Peroxidase-like activity for 1 μM Hb-PAA synthesized at pH 7.0. All experiments were done in the presence of 1 μM Hb, 2.5 mM guaiacol and 1 mM H2O2.\nPolyacrylic acid (PAA) (8000 Da) was purchased from sigma chemical Co (St. Louis, Mo.). The PAA stock solution was made by mixing 1.32 gm of 45% (w/w) PAA in 3 ml of 20 mM Na2HPO4 buffer, pH 7.2, and was further used for synthesis. Met-hemoglobin (Hb, bovine) was purchased from Sigma. Protein solutions were prepared in the respective buffers used for synthesis and the concentrations determined from the Soret absorbance of Hb using extinction co-efficient 303,956 M^−1 cm^−1 at 407 nm.\nHb activity was monitored by the addition of guaiacol (substrate) and hydrogen peroxide (oxidant), and formation of the colored product has been monitored by its absorption at 470 nm as a function of time (FIG. 4). […]\nHb activity was followed by literature method, with minor modifications. Product absorbance at 470 nm was monitored as a function time of after the addition of H2O2 (1 mM) to Hb (5 μM) and o-methoxyphenol (2.5 mM). Initial rates and Michaelis-Menten parameters were calculated from the kinetic data by following standard protocols. […]", "note": "Where “and” joins values, the source holds several entries; their conditions need not be identical. Equal entries are not always repeated.", "data": [{"substance": "Met-hemoglobin (Hb, bovine), unmodified (Bos taurus)", "values": [{"measurement": "Km", "setting": "1 mM H2O2", "result": "500 µM and 507 µM"}, {"measurement": "Vmax", "setting": "1 mM H2O2, 120.0 °C", "result": "0.0026 mM/s and 0.0021 mM/s"}]}]}
